Experimental findings from publication PMC6182161 (Nucleic Acids Research, 2018) are described below.

Where a chain is given by its changes, count along the chain named.

For experiment [1], the target named is T1, Flag-NAT10 GE (UniProt Q9H0A0 1-1025, G641E).
T1 sequence (looked up): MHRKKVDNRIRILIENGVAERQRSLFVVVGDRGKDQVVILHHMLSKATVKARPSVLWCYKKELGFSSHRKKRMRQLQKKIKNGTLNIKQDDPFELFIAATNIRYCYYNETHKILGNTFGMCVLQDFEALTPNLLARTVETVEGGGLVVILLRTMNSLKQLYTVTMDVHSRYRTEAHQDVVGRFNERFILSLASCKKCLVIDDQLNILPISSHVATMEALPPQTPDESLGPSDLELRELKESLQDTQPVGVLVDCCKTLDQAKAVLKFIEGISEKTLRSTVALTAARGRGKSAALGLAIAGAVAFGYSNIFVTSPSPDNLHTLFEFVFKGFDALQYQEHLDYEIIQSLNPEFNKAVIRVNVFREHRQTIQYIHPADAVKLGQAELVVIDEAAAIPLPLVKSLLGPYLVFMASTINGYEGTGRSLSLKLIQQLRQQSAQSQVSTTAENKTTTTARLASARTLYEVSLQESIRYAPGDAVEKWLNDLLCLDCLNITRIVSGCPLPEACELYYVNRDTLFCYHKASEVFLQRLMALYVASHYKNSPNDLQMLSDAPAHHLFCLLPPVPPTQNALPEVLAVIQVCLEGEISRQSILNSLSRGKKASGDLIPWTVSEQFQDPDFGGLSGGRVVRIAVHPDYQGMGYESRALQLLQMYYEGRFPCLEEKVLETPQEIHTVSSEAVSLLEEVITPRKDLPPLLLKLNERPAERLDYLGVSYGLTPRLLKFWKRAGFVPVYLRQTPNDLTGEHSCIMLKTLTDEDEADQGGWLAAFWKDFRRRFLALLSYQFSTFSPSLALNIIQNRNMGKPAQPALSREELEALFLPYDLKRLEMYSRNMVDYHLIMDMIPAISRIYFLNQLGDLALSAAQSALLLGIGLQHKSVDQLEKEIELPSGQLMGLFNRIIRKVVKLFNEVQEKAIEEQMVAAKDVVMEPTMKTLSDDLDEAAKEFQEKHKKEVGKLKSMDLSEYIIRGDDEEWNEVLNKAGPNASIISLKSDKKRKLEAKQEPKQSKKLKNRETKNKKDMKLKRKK
The experiment is described as follows: pull-down.

Experiment [2] addresses T2, purified Flag-NAT10 (UniProt Q9H0A0 1-1025).
T2 sequence (looked up): T1 sequence (looked up) with E641G
Kind of experiment: pull-down.

B1: GST-Che-1 (natural protein, UniProt Q9NY61 1-560, looked up)
chain: MAGPQPLALQLEQLLNPRPSEADPEADPEEATAARVIDRFDEGEDGEGDFLVVGSIRKLASASLLDTDKRYCGKTTSRKAWNEDHWEQTLPGSSDEEISDEEGSGDEDSEGLGLEEYDEDDLGAAEEQECGDHRESKKSRSHSAKTPGFSVQSISDFEKFTKGMDDLGSSEEEEDEESGMEEGDDAEDSQGESEEDRAGDRNSEDDGVVMTFSSVKVSEEVEKGRAVKNQIALWDQLLEGRIKLQKALLTTNQLPQPDVFPLFKDKGGPEFSSALKNSHKALKALLRSLVGLQEELLFQYPDTRYLVDGTKPNAGSEEISSEDDELVEEKKQQRRRVPAKRKLEMEDYPSFMAKRFADFTVYRNRTLQKWHDKTKLASGKLGKGFGAFERSILTQIDHILMDKERLLRRTQTKRSVYRVLGKPEPAAQPVPESLPGEPEILPQAPANAHLKDLDEEIFDDDDFYHQLLRELIERKTSSLDPNDQVAMGRQWLAIQKLRSKIHKKVDRKASKGRKLRFHVLSKLLSFMAPIDHTTMNDDARTELYRSLFGQLHPPDEGHGD
With B1, the binding result in experiment [1] and in experiment [2] was “binds” throughout.

B2: GST-Che-1-N (domain or fragment, UniProt Q9NY61 1-124, looked up)
chain: MAGPQPLALQLEQLLNPRPSEADPEADPEEATAARVIDRFDEGEDGEGDFLVVGSIRKLASASLLDTDKRYCGKTTSRKAWNEDHWEQTLPGSSDEEISDEEGSGDEDSEGLGLEEYDEDDLGA
Take B2: in experiment [2], the binding result is “binds”.

B3: GST-Sirt1 (enzyme, UniProt Q96EB6 1-747, looked up)
chain: MADEAALALQPGGSPSAAGADREAASSPAGEPLRKRPRRDGPGLERSPGEPGGAAPEREVPAAARGCPGAAAAALWREAEAEAAAAGGEQEAQATAAAGEGDNGPGLQGPSREPPLADNLYDEDDDDEGEEEEEAAAAAIGYRDNLLFGDEIITNGFHSCESDEEDRASHASSSDWTPRPRIGPYTFVQQHLMIGTDPRTILKDLLPETIPPPELDDMTLWQIVINILSEPPKRKKRKDINTIEDAVKLLQECKKIIVLTGAGVSVSCGIPDFRSRDGIYARLAVDFPDLPDPQAMFDIEYFRKDPRPFFKFAKEIYPGQFQPSLCHKFIALSDKEGKLLRNYTQNIDTLEQVAGIQRIIQCHGSFATASCLICKYKVDCEAVRGDIFNQVVPRCPRCPADEPLAIMKPEIVFFGENLPEQFHRAMKYDKDEVDLLIVIGSSLKVRPVALIPSSIPHEVPQILINREPLPHLHFDVELLGDCDVIINELCHRLGGEYAKLCCNPVKLSEITEKPPRTQKELAYLSELPPTPLHVSEDSSSPERTSPPDSSVIVTLLDQAAKSNDDLDVSESKGCMEEKPQEVQTSRNVESIAEQMENPDLKNVGSSTGEKNERTSVAGTVRKCWPNRVAKEQISRRLDGNQYLFLPPNRYIFHGAEVYSDSEDDVLSSSSCGSNSDSGTCQSPSLEEPMEDESEIEEFYNGLEDEPDVPERAGGAGFGTDGDDQEAINEAISVKQEVTDMNYPSNKS
For the molecule B3, in experiment [2], the binding result is on record as “binds”.

B4: GST-Che-1-M (domain or fragment, UniProt Q9NY61 125-246, looked up)
chain: AEEQECGDHRESKKSRSHSAKTPGFSVQSISDFEKFTKGMDDLGSSEEEEDEESGMEEGDDAEDSQGESEEDRAGDRNSEDDGVVMTFSSVKVSEEVEKGRAVKNQIALWDQLLEGRIKLQK
Take B4: in experiment [2], the binding result was “binds”.
